Experimental data reported in patent US20220242962A1 (APTEVO RESEARCH AND DEVELOPMENT, published 2022).
Changes are numbered by the printed parent chain.

T1: Human OX40 ECD-AFH (human)
T1 construct: ECD'; entry includes the C-terminal tags; also called OXF003; Human OX40 ECD-avi-flag-his
T1 chain: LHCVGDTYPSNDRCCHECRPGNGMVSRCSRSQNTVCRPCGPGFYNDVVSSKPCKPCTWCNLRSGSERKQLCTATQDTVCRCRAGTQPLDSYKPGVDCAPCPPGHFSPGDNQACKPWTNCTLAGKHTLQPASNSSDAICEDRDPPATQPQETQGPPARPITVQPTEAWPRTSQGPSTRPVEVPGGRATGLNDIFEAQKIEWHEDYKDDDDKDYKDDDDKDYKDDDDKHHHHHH

T2: Cyno 4-1BB ECD-AFH (cynomolgus monkey)
T2 construct: entry includes the tags; also called FOB004; Cyno CD137 ECD-avi-flag-his
T2 chain: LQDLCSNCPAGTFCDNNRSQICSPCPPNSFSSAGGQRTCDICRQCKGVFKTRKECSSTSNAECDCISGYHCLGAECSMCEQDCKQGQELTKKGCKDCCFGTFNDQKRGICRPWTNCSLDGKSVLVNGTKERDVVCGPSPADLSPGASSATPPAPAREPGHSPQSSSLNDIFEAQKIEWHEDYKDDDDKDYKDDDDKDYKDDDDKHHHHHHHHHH

T3: Cyno OX40-AFH (cynomolgus monkey)
T3 construct: entry includes the tags; also called OXF005; cyno OX40 ECD
T3 chain: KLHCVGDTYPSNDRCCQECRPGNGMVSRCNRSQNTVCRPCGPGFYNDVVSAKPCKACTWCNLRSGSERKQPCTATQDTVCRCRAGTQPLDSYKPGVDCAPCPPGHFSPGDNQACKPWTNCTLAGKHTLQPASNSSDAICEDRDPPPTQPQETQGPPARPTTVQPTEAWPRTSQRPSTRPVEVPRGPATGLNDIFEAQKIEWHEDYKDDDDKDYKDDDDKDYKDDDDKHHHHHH

T4: Full-length Cyno 4-1BB (cynomolgus monkey, UniProt Q07011 24-255 (human entry))
T4 construct: on Jurkat or CHO cells; also called FOB006; cynomolgus 4-1BB
T4 chain: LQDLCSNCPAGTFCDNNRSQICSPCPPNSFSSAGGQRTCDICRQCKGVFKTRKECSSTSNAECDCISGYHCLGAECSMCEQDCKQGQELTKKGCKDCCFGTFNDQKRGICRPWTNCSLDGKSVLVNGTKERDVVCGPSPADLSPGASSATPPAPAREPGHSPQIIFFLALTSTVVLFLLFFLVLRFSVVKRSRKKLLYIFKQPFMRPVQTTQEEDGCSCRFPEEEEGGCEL

T5: Full-length Cyno OX40 (cynomolgus monkey, UniProt P43489 29-277 (human entry))
T5 construct: on CHO-K1SV cells; also called OXF004; cynomolgus OX40
T5 chain: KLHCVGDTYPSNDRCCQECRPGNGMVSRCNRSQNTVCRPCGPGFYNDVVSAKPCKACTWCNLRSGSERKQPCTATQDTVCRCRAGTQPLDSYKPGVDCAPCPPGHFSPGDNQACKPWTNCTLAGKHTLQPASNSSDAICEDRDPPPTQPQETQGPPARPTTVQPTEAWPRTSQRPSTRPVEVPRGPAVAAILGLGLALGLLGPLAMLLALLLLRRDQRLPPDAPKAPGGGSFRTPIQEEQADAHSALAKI

T6: Full-length Human OX40 (human, UniProt P43489 29-277)
T6 sequence: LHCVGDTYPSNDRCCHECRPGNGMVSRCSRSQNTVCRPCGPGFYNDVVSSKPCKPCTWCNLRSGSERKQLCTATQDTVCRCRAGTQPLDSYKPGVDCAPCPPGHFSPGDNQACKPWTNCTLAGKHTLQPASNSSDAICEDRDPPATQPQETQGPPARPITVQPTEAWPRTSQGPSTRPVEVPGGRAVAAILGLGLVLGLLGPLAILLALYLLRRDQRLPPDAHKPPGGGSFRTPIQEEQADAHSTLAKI

B1: FXX01110 (bispecific antibody)
chain: EVQLVQSGAEVKKPGASVKVSCKASGYTFTSYWMNWVRQAPGQGLEWMGNIYPSGGSTNYAQKFQGRVTMTVDTSTSTVYMELSSLRSEDTAVYYCASFSDGYYAYAMDYWGQGTLVTVSSGGGGSGGGGSGGGGSGGGGSEIVMTQSPATLSLSPGERATLSCRASQSVSSYLNWYQQKPGQAPRLLIYYASRRHTGIPARFSGSGSGTDFTLTISSLQPEDFAVYYCQQGYNLPYTFGQGTKVEIKEPKSSDKTHTCPPCPAPPAAAPSVFLFPPKPKDTLMISRTPEVTCVVVDVSHEDPEVKFNWYVDGVEVHNAKTKPREEQYNSTYRVVSVLTVLHQDWLNGKEYKCAVSNKALPAPIEKTISKAKGQPREPQVYTLPPSRDELTKNQVSLTCLVKGFYPSDIAVEWESNGQPENNYKTTPPVLDSDGSFFLYSKLTVDKSRWQQGNVFSCSVMHEALHNHYTQKSLSLSPGGGGSPSSYVLTQPPSVSVAPGQTARITCGGNNIGSKSVNWFQQKPGQAPVLVVYDDSGRPSGIPARFSGSTSGNTATLTISRVEAGDEADYYCQVWDSSSDHVVFGGGTKLTVLGGGGSGGGGSGGGGSGGGGSQVQLVESGGGVVQPGRSLRLSCAASGFTLSYYGMHWVRQAPGKGLEWVAAISHDGSDKYYADSVKGRFTISRDNSKNTLYLQMNSLRAEDTAVYYCSNDQFDPWGQGTLVTVSSR
notes: ADAPTIR anti-4-1BB x anti-OX40, pI variant of the anti-OX40 scFv
B2: FXX01117 (bispecific antibody)
chain: B1 chain with A543K, T690R
notes: ADAPTIR anti-4-1BB x anti-OX40, pI variant
B3: FXX01113 (bispecific antibody)
chain: B1 chain with T690R
notes: as for B2
B4: FXX01114 (bispecific antibody)
chain: B1 chain with T690R
notes: as for B2
B5: FXX01112 (bispecific antibody)
chain: B1 chain with I541V, A543S
notes: as for B2
B6: FXX01118 (bispecific antibody)
chain: B1 chain with Q500K, T690R
notes: as for B2
B7: FXX01116 (bispecific antibody)
chain: B1 chain with I541V, A543S, T690R
notes: as for B2

Target: T7, Human 4-1BB ECD-AFH (human)
T7 construct: entry includes the tags; also called FOB003; HUMAN CD137 ECD-AVI-FLAG-HIS
Experiment: SPR (Biacore 8K), construct captured, monovalent ECD
Description: (§1) Mouse anti-human IgG (GE, BR-1008-39) at 25 μg/ml in 10 mM sodium acetate pH 5.0 was immobilized at a density of ˜10,000 response units (RU) onto each flow cell of a CM5 research-grade sensor chip (GE) by standard amine coupling chemistry. Each binding protein at approximately 100 nM in HBS-EP+ with 0.2% BSA buffer was captured in a flow cell with the immobilized anti-human IgG at a flow rate of 10 μL/min for 20 seconds, leaving one flow cell surface unmodified as the reference. Using a single-cycle kinetics mode, five different concentrations of ECD were sequentially injected through each flow cell at 30 μL/min for 300 seconds followed by a 600 second dissociation period. Regeneration was achieved by injection of 3 M MgCl₂ at a flow rate of 30 μL/min for 30 seconds followed by HBS-EP+ with 0.2% BSA buffer stabilization for 1 min.
(§2) Sensorgrams obtained from kinetic SPR measurements were analyzed by the double subtraction method. The signal from the reference flow cell was subtracted from the analyte binding response obtained from flow cells with immobilized or captured ligands. Buffer reference responses were then averaged from multiple injections. The averaged buffer reference responses were then subtracted from analyte binding responses, and the final double-referenced data were analyzed with Biacore T200 Evaluation software (2.0, GE), globally fitting data to derive kinetic parameters. All sensorgrams were fitted using a simple one-to-one binding model.
(§3) Using the BIACORE 8K SPR system, the affinity of these constructs for human and cyno 4-1BB, and human and cyno OX40 ECD, were determined using the methods described above. Monovalent binding affinity was determined by capturing the ADAPTIR™ bispecific construct on the chip and injecting monovalent ECD of the target at multiple concentrations.

Kd | koff | kon | Binder
18 nM | 0.0048 s⁻¹ | 260000 M⁻¹ s⁻¹ | B1
17 nM | 0.0042 s⁻¹ | 250000 M⁻¹ s⁻¹ | B2
15 nM | 0.0046 s⁻¹ | 300000 M⁻¹ s⁻¹ | B3
17 nM | 0.0045 s⁻¹ | 270000 M⁻¹ s⁻¹ | B4
17 nM | 0.0045 s⁻¹ | 260000 M⁻¹ s⁻¹ | B5
17 nM | 0.0046 s⁻¹ | 270000 M⁻¹ s⁻¹ | B6
17 nM | 0.0046 s⁻¹ | 270000 M⁻¹ s⁻¹ | B7

Target: T1, Human OX40 ECD-AFH
Experiment: as above
Description: as §1, §2, §3

Kd | koff | kon | Binder
< 1 nM | 0.00036 s⁻¹ | 910000 M⁻¹ s⁻¹ | B1
< 1 nM | 0.0003 s⁻¹ | 970000 M⁻¹ s⁻¹ | B2
< 1 nM | 0.00031 s⁻¹ | 890000 M⁻¹ s⁻¹ | B3
< 1 nM | 0.00026 s⁻¹ | 1.1e+06 M⁻¹ s⁻¹ | B4
< 1 nM | 0.00057 s⁻¹ | 790000 M⁻¹ s⁻¹ | B5
< 1 nM | 0.00031 s⁻¹ | 840000 M⁻¹ s⁻¹ | B6
< 1 nM | 0.00044 s⁻¹ | 880000 M⁻¹ s⁻¹ | B7

Target: T2, Cyno 4-1BB ECD-AFH
Experiment: as above
Description: as §1, §2, §3

Kd | koff | kon | Binder
70 nM | 0.0077 s⁻¹ | 110000 M⁻¹ s⁻¹ | B1
76 nM | 0.0072 s⁻¹ | 96000 M⁻¹ s⁻¹ | B2
82 nM | 0.0078 s⁻¹ | 95000 M⁻¹ s⁻¹ | B3
116 nM | 0.0091 s⁻¹ | 79000 M⁻¹ s⁻¹ | B4
77 nM | 0.008 s⁻¹ | 100000 M⁻¹ s⁻¹ | B5
80 nM | 0.0077 s⁻¹ | 96000 M⁻¹ s⁻¹ | B6
81 nM | 0.0079 s⁻¹ | 98000 M⁻¹ s⁻¹ | B7

Target: T3, Cyno OX40-AFH
Experiment: as above
Description: as §1, §2, §3

Kd | koff | kon | Binder
< 1 nM | 0.00029 s⁻¹ | 1.1e+06 M⁻¹ s⁻¹ | B1
< 1 nM | 0.0002 s⁻¹ | 1e+06 M⁻¹ s⁻¹ | B2
< 1 nM | 0.00028 s⁻¹ | 980000 M⁻¹ s⁻¹ | B3
< 1 nM | 0.00028 s⁻¹ | 1.1e+06 M⁻¹ s⁻¹ | B4
< 1 nM | 0.00031 s⁻¹ | 870000 M⁻¹ s⁻¹ | B5
< 1 nM | 0.00024 s⁻¹ | 1.1e+06 M⁻¹ s⁻¹ | B6
< 1 nM | 0.00027 s⁻¹ | 1e+06 M⁻¹ s⁻¹ | B7

Target: T4, Full-length Cyno 4-1BB
Experiment: flow cytometry on Jurkat cells transfected with cynomolgus 4-1BB, goat anti-human Fc secondary antibody, MFI (Mean)
Description: (§4) Serial dilutions of ADAPTIR™ constructs were incubated with transfected target cells and subsequently labelled with a fluorescently-conjugated goat-a-human Fc secondary antibody. […] (See Example 25.)

EC50 (read off the curve) | Binder
~0.3 nM | B1
~0.3 nM | B2
~0.3 nM | B3
~0.3 nM | B4
~0.3 nM | B5
~0.3 nM | B6
~0.3 nM | B7

Target: T5, Full-length Cyno OX40
Experiment: flow cytometry on CHOK1SV cells transfected with cynomolgus OX40, goat anti-human Fc secondary antibody, MFI (Mean)
Description: as §4

EC50 (read off the curve) | Binder
1 to 2 nM | B1
1 to 2 nM | B2
1 to 2 nM | B3
1 to 2 nM | B4
1 to 2 nM | B5
1 to 2 nM | B6
1 to 2 nM | B7

Target: Full-length Human 4-1BB (human, UniProt Q07011 24-255)
Experiment: cell-based or functional assay

4-1BB Reporter Assay EC50 | 4-1BB Reporter Assay Max induction | Binder
0.021 nM | 1.38e+06 | B1
0.02 nM | 1.41e+06 | B2
0.019 nM | 1.37e+06 | B3
0.018 nM | 1.43e+06 | B4
0.014 nM | 1.45e+06 | B5
0.018 nM | 1.38e+06 | B6
0.019 nM | 1.39e+06 | B7

Target: T6, Full-length Human OX40
Experiment: cell-based or functional assay

OX40 Reporter Assay EC50 | OX40 Reporter Assay Max induction | Binder
0.017 nM | 5.9e+06 | B1
0.018 nM | 6.22e+06 | B2
0.016 nM | 6.1e+06 | B3
0.018 nM | 6.08e+06 | B4
0.019 nM | 6.17e+06 | B5
0.016 nM | 6.28e+06 | B6
0.017 nM | 5.95e+06 | B7
